According to article PMC3628942:

Target: Bombyx mori lipoprotein 3 (Bombyx mori) (UniProt Q00802)
Assay: crystal structure; crystal form Bmlp3-c2, space group C2, two molecules in the asymmetric unit; grown in 2.0 M ammonium sulfate, 0.1 M ammonium iodide, pH 5.5, 20°C; an iodide anion lies in the centre of the dimer interface

stoichiometry N: 2
Substance: Bombyx mori lipoprotein 3 (from UniProt Q00802 18-256) (natural protein)
